Our source for the protein stability index values is the supplement of paper PMC10724198.

± gives the standard deviation of the averaged measurements.
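Also: PSI is a weighted mean of sequencing reads over stability bins, variants kept only with over 10 reads, mCherry proximal and sfGFP distal, peptide attached via GGGS linker.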

In this series the test system is Saccharomyces cerevisiae. The experiment in a line: protein stability index of tFT-peptide fusion (C-terminal peptide) (PSI (0-1 scale)); higher = more stable (slower turnover). The following applies: genetic background: wild type; temperature: 30 C. The protocol: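 Multiplexed protein stability (MPS) profiling in S. cerevisiae. Random 12-aa peptides (tFT-X12 library) are fused to the C-terminus of a sfGFP-mCherry tandem fluorescent timer, after mCherry and a GGGS linker. Cells are FACS-sorted into 8 mCherry/sfGFP bins and deep-sequenced. The protein stability index (PSI) is the read-weighted bin average, scaled from 0 (unstable) to 1 (stable). Only peptides with >10 reads are reported; cells were grown at 30 °C in SC-His with glucose.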
Take FVFAYLPSYEAM: the protein stability index came to 0.729 ± 0.023.
Next, FVGAEWLLFYFS: 0.677 ± 0.069; FVPPGTTSPNTT: 0.731 ± 0.059.
FVPRFPGTTINS registered a protein stability index of 0.681 ± 0.049.
With FVSLVGGFVGTV, the protein stability index amounted to 0.646 ± 0.037.
The figure for FVSPVPPRRVGA is 0.704 ± 0.037.
The figure for FWGCCGGVGPRG is 0.709 ± 0.0077; for FWHERVSSTVKR it is 0.731 ± 0.025; for FWKSVMRYYFKR it is 0.669 ± 0.027.
As to FWPPPATSAAPC, the protein stability index is 0.79 ± 0.011.
The figure for FYFLFVFICLRV is 0.6642 ± 0.0062; for FYIQVFTPLGGS it is 0.639 ± 0.0097.
FYLRRNILGQDC registered a protein stability index of 0.695 ± 0.0096.
The figure for FYPLPSYFAYPI is 0.663 ± 0.022; for FYSLFLPRPFLS it is 0.579 ± 0.024; for FYVTRIGPLDMS it is 0.801 ± 0.023.
Next, GAAGASCDCTGG: 0.695 ± 0.07; GACIRLLPSFGY: 0.6434 ± 0.0041.
The figure for GACWRDSHSGGD is 0.683 ± 0.023; for GAEKGSVPGGDK it is 0.654 ± 0.05; for GAEQSTDEFIRG it is 0.7058 ± 0.0012.
For the sequence GAGAAVHRAAPG, the protein stability index came to 0.672 ± 0.029.
The figure for GAGFCSGLRGAG is 0.689 ± 0.088; for GAGGVGGTSGGK it is 0.675 ± 0.084; for GAGLWGGRGRRW it is 0.6489 ± 0.0063.
The figure for GAGRAVRAFCVL is 0.651 ± 0.02; for GAGRGKEREYRP it is 0.61356 ± 0.00019; for GAGVLTLDNRRV it is 0.674 ± 0.019.
Next, GAKAARTTITSG: 0.653 ± 0.026; GAKSENSLTTVQ: 0.673 ± 0.013; GALANPLGHSHL: 0.792 ± 0.11.
For GALGCHPGLPSP, the protein stability index amounted to 0.714 ± 0.025.
Next, GALIGNDGHVSG: 0.679 ± 0.027; GANLVTGKLTDG: 0.693 ± 0.036; GAQSAVLQNPPA: 0.6238 ± 0.0042.
The figure for GARERRRRRRRP is 0.713 ± 0.025.
Next, GARGGGRSRGTR: 0.779 ± 0.091.
In turn, GARRVVFSSVLQ had a protein stability index of 0.774 ± 0.13.
Consider GASCRDCVTRGS, for which the protein stability index is 0.745 ± 0.042.
As to GASGGGQSSFGE, the protein stability index was 0.669 ± 0.013.
The figure for GASVWGRGTRKI is 0.6902 ± 0.0059.
Next, GATGGACGGWAG: 0.67249 ± 0.00044; GATRCQTYPAGA: 0.686 ± 0.04; GAVTNHAMASRP: 0.725 ± 0.035.
GAVVLSRFRCLP showed a protein stability index of 0.639 ± 0.035.
The figure for GAWASLPGLISP is 0.729 ± 0.058; for GAWGFVWLGVGC it is 0.658 ± 0.031.
The sequence GAWWRMEQAFGV returned a protein stability index of 0.757 ± 0.034.
Next, GCADNNRLGNVV: 0.66 ± 0.011.
The figure for GCAWGVKYEVIL is 0.637 ± 0.05; for GCDELGGRRFGR it is 0.7207 ± 0.0051.
GCFDLNPDLFQG: the protein stability index turned out to be 0.688 ± 0.022.
Next, GCFLIANMCLLG: 0.665 ± 0.0035.
Next, GCLFSVLQSPSV: 0.721 ± 0.02.
The figure for GCLSPSTPLWFP is 0.71454 ± 0.00037; for GCLSRLCKGKVM it is 0.599 ± 0.033.
In the case of GCRCSSGLGGFW, the protein stability index came out at 0.649 ± 0.11.
Next, GCVPGVGRDVVV: 0.719 ± 0.019; GCWHFWQFFCHY: 0.678 ± 0.024; GDHGSYAGPALL: 0.673 ± 0.047.
The figure for GDITEVDISKHI is 0.75 ± 0.051.
The figure for GDLGPADRQPAG is 0.639 ± 0.027.
Consider GDLYWLRNAMSL, for which the protein stability index was found to be 0.731 ± 0.012.
The figure for GDSPSGKPAERT is 0.661 ± 0.065.
The sequence GDTQESSHIRIY returned a protein stability index of 0.669 ± 0.051.
The figure for GEAGICAGTAGG is 0.693 ± 0.041; for GEALSFIFVSPP it is 0.722 ± 0.033.
Next, GEAVAGRRQESP: 0.695 ± 0.073; GEDFRVLVFVRL: 0.556 ± 0.0099; GEFARSTRLAWV: 0.682 ± 0.027.
Next, GEFISRSSRIEI: 0.64 ± 0.042; GEGGGLRARQKP: 0.673 ± 0.057; GEGHGGMLDVVM: 0.686 ± 0.066.
GELGGRAWVERG returned a protein stability index of 0.683 ± 0.044.
The figure for GELGGRSWVERG is 0.648 ± 0.099.
Next, GELPGLFRCCLM: 0.492 ± 0.072; GENLGGDVFNIG: 0.73 ± 0.0031; GENPEPRHGRGN: 0.698 ± 0.022.
The sequence GEQGAPLSIRYS had a protein stability index of 0.622 ± 0.021.
The figure for GEQGVLARSDRI is 0.589 ± 0.025.
On to GEQSYGGHSVQT, for which the protein stability index is 0.642 ± 0.054.
Next, GERSGVSIRHEG: 0.726 ± 0.016; GESIIQTCLNSI: 0.845 ± 0.017; GESLSLVRIWRK: 0.625 ± 0.13.
As to GESRPPLASPHP, the protein stability index stood at 0.708 ± 0.0087.
In turn, GETGGACGVWAG displayed a protein stability index of 0.685 ± 0.066.
The figure for GETQAAGAKYLG is 0.724 ± 0.019.
The figure for GEYEHHKNKKRR is 0.7 ± 0.075; for GFALRESWFIFV it is 0.644 ± 0.018; for GFAVGDQFIVPL it is 0.687 ± 0.048.
In turn, GFCLIVGVVPAL showed a protein stability index of 0.5179 ± 0.0024.
Turning to GFHSVVMTFLRY, the protein stability index was found to be 0.63 ± 0.017.
Consider GFILTVAPNLEH, for which the protein stability index was 0.648 ± 0.031.
Take GFKMSMGCEQSS: the protein stability index was 0.722 ± 0.076.
The figure for GFLCARGAHSMT is 0.704 ± 0.013.
The figure for GFLCDTVRLGCA is 0.702 ± 0.058; for GFLCLISSLGFM it is 0.687 ± 0.051.
The figure for GFLSYWYISFPF is 0.641 ± 0.014.
As for GFPRSPALCSQP, the protein stability index worked out at 0.689 ± 0.017.
The figure for GFRDGVASLFVR is 0.757 ± 0.026.
Consider GFRWGYIGGWRW, for which the protein stability index was 0.741 ± 0.01.
Next, GFSFSSFLRGLF: 0.625 ± 0.017; GFTAERWRVKGR: 0.674 ± 0.058.
As for GFVAGGVCSRPL, the protein stability index was 0.715 ± 0.076.
GGAAWRRGVGGV: the protein stability index amounted to 0.66 ± 0.025.
Next, GGAGAGHDPRRN: 0.705 ± 0.019.
The figure for GGAGGRRRIGGG is 0.622 ± 0.048; for GGARGEDRRAYV it is 0.668 ± 0.054; for GGCCLWVGFQGG it is 0.703 ± 0.012.
GGCGGGCGACVV gave a protein stability index of 0.701 ± 0.025.
Next, GGCGGRGGVVVR: 0.687 ± 0.02; GGCVCGPRVLGV: 0.67 ± 0.031.
Next, GGCVGVLGGWGL: 0.694 ± 0.0083; GGCVVKVRAQGP: 0.636 ± 0.01.
The figure for GGEGPKGDRGRA is 0.649 ± 0.018; for GGEVFGGRCSAV it is 0.734 ± 0.12.
